The values below come from the nanobody polyreactivity screen of Harvey et al. (2022).

The nature of this data set: yeast display, Sf9 membrane polyspecificity reagent, FACS + sequencing; frameworks hold sequencing errors. An outline of the steps: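 After 36–48 hours of galactose induction, yeast (Saccharomyces cerevisiae BJ5465) displaying a synthetic nanobody library were stained at 4 °C for 1 hour with 10% biotinylated, detergent-solubilized Sf9 membrane reagent. Streptavidin microbeads enriched the stained cells before FACS sorting into low and high (top ~1%) gates on anti-HA and streptavidin fluorescence. Each clone's polyreactivity label reflects its gate of origin.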
As for “QVQLVESGAGLVQAGGSLRISGAASGRIFGKYAMGWYRQPPGKEREFVARISFSGGTTYYADSVKGRFTISRDNAKNTVYLQMNSLKPEDTAVYYCAARRQSGYGRQLDYWGQGTQVTVSS”, the “polyreactivity (PSR sort gate)” value is “high polyreactivity”.
As to “QVQLVESGAGLVQAGGSLRLCCAASGRIFRSYAMGLYREAPGKERELVAAITWSGGSTYYADSVKGRFTISRDNAKNSVYLQMNSQKPEETAVYYCARVDTKKYSHTGYEYWGQGTQVTVSS”, the “polyreactivity (PSR sort gate)” value is given as “high polyreactivity”.
For the sequence “QVQLVESGAGLVQAGGSLRLSCAACGSTFRGNAMGWYRQAPGKEREFVASISRRGGRTNYADSVKGRFTISRDNAKNTVYLQMNSLKPEDTAVYYCAATTVPLGDYWGQGTQVTVSS”, the “polyreactivity (PSR sort gate)” value was “high polyreactivity”.
On to “QVQLVESGAGLVQAGGSLRLSCAASGIIFSDNAMGWYRQAPGKEMELVAAIDWSGGSTYYADSVKGRFTISRDNAKNTVYLHMNSLKPEDTAVDYCAAEYRDYVPVNVTGDYWGQGTQVTVSS”, for which the “polyreactivity (PSR sort gate)” value is “low polyreactivity”.
Turning to “QVQLVESGAGLVQAGGSLRLSCAASGITFASYGMGWYRQAPGKERELVAAISQRGGRTYYADSVKGRFTISRDNAKNTVYLQMNRLKPEDTAVYYCAARTYTITGRSPQYLNAYGYWGQGTQVTVSS”, the “polyreactivity (PSR sort gate)” value is listed as “high polyreactivity”.
As to “QVQLVESGAGLVQAGGSLRLSCAASGLIFSVYGLGWYRQEPGKERELVAAISSRGGSTYYADSVKGRFTISRVNANYTVYLQMNSLKPEDTAFYYCARRAYREHHRCQYYYWGQGTQLTVSS”, the “polyreactivity (PSR sort gate)” value was “high polyreactivity”.
Turning to “QVQLVESGAGLVQAGGSLRLSCAASGRIFDIYAMGWYRQAPGKERELVAAITRRGGTTYADSVKGRFTISRDNAKNTVYLQMNSLKPEDTAVYYCARYHWYYRVSKSDSWGQGTQVTVSS”, the “polyreactivity (PSR sort gate)” value is on record as “high polyreactivity”.
“QVQLVESGAGLVQAGGSLRLSCAASGRTFDSNAMGWYRQAPGKEREFFASIRWTVTSTYYADSVKGRFTISRDNAKNTVYLQMNSLKPEDTAVYYCNAEDYYYVGRSDYWGQGTQVTVSS”: the “polyreactivity (PSR sort gate)” value is “low polyreactivity”.
In the case of “QVQLVESGAGLVQAGGSLRLSCAASGRTFSGYAMGGYRQAPGKERELVAAISWRGGRTYYADSVKGRFTISRDNAKNTVYLLMYSLKPEDTAVYYCNTVGHVYYGEFDYWGQGTQVTVSS”, the “polyreactivity (PSR sort gate)” value is given as “high polyreactivity”.
Regarding “QVQLVESGAGLVQAGGSLRLSCAASGRTFVYNAMGWYRQAPGKERELVAAISSDGASTYYADSVKGRFTISRDNAKNTVYLQMNRLNPEDTAVYYCAADFSYYSYEHYYWGQATQVTVSS”, the “polyreactivity (PSR sort gate)” value is “low polyreactivity”.
The same measure for “QVQLVESGAGLVQAGGSLRLSCAASGRTFWSNAMGWYRQAPGKEREFVAAIRSTVGSTYYADSVKGRFTISRDNAKNTVYLQMNSLNPEDTAVYYCYVSSGYYAYYYWGQGTQVTVSS”: “high polyreactivity”.
Regarding “QVQLVESGAGLVQAGGSLRLSCAASGSILYINTMGWYRQAPGKERELVAAITSSGGSTYYADSVKGRFTISRDNAKNTVDLQMNSLKPEDTAVYYCAAVGYYGGYNYWGQGTQVTVSS”, the “polyreactivity (PSR sort gate)” value was “low polyreactivity”.
Take “QVQLVESGAGLVQAGGSLRLSCAASGSIYVYAMGWSRQAPGKERELVAAISWSDGSTYYADSVKGRFTISRDNAKNTVYLQMNSLKPEDTAVYYCNAYGIQVDTYWQDRVEYDYWGQGTQVTVSS”: the “polyreactivity (PSR sort gate)” value is reported as “high polyreactivity”.
Take “QVQLVESGAGLVQAGGSLRLSCAASGSTFSYNAMGWYRQAPGKERELVAAISRRGDSTYYADSVKGRFTISRDNAKNTVYLQMNSLKTEDTAVYYCYAVTYYSHRYFSWYSRKGYDYWGQGTEVTVSS”: the “polyreactivity (PSR sort gate)” value is “high polyreactivity”.
The entry for “QVQLVESGAGLVQAGGSLRLSCAASGSTLYRYAMGWYRQAPGKERELVAAISRRGDSTYYADSVKGRFTISRDNAKNTVYLQMNSLKPEDTAVYYCNTARSAGKYDYWGQGTQVTVSS” is “high polyreactivity”; for “QVQLVESGAGLVQAGGSLRLSCAASGTIFRDYAMGWYRQAPGKERELVAAISSDGSTYYADSVKGRFTISRDNAKNTVYLEMNSLKPEDTAAYYCNARSYYPWEGFDYWGQGTQVTVSS” it is “low polyreactivity”; for “QVQLVESGAGLVQAGGSLRLSCAASGYIFLRYAMGWSRQAPGKERELVAAIRGGSTNYADSVKGRFTISRDNAKNTVYLQMNSLKPEDTAVYYCAARGSKKQAYGYWGQGTQVTVSS” it is “high polyreactivity”.
For the sequence “QVQLVESGAGLVQAGGSLRLSCAASRRIIYKYAMGWYSQAPGKERELVAAITSGGSTYYADSVKGRYTISRDNAKNTVDLQMNSLKPQDTAVYYCAASYARLSVWYDYWRQGTQVTVSS”, the “polyreactivity (PSR sort gate)” value is recorded as “high polyreactivity”.
For “QVQLVESGAGLVQAGGSLRLSCAATGLTFDYNAMGWYRKAPGKERELVAAITWSGGSTYYADSVKGRFTISRDNAKNTVYLQMNSLKTEDTAVYYCATESYGLDYYDEYNYWGQGTQVTVSS”, the “polyreactivity (PSR sort gate)” value is listed as “low polyreactivity”.
With “QVQLVESGAGLVQAGGSLRLSCAPSGNIFSVYAMGWYRHAPGKARELVARITKTVGGTYYADSVKGRFTISRDNAKNTVYLQMNSLKPEDTAVYYCAARVWTGNGGSKGAYDYWGQGTQVTVSS”, the “polyreactivity (PSR sort gate)” value is recorded as “high polyreactivity”.
Turning to “QVQLVESGAGLVQAGGSLRLSCAPSGSTFMTYAMGWYRQAPGKERELVAAIRWSGGGTYYADSVKGRFTISRDNAKNTVYLQMNSLKPEDTAVYFCAADHFNYTTGRDYWGQGTQVTVSS”, the “polyreactivity (PSR sort gate)” value is “low polyreactivity”.
Turning to “QVQLVESGAGLVQAGGSLRLSCASSGSIFVSNAMGWYRKAPGKERELVAAISQSGGSTYYADSVKGRFTISRDNAKNTVYLLMNSLKPEDTAVYYCATPIRSGFRIYDYWGQGTQVTVSS”, the “polyreactivity (PSR sort gate)” value was “low polyreactivity”.
“QVQLVESGAGLVQAGGSLRLSCASSGYIFDWYAMGWYRQAHGKERELGAAISGRGGSTYYADSVKGRFTISRDNSKNTVYLQMYSLKPEYTAVYYCNAALSPWGYNYWGQGTQVTVSS”: the “polyreactivity (PSR sort gate)” value was “high polyreactivity”.
As for “QVQLVESGAGLVQAGGSLRLSCDASGSIFSWYAMGWYRQARGKERELVAAITWSGGSTYYADSVKGRFTISRDNAKNTVYLEMNSLKPEDTAVYYCNTYSYYAFDWGLGTQVTVSS”, the “polyreactivity (PSR sort gate)” value is given as “high polyreactivity”.
As to “QVQLVESGAGLVQAGGSLRLTCAASGIIFPFYAMGWYRQAPGKERELVAGITSGGDTYYADSVKGRFTISRDNAKNTVYLQMNSLKPEDTAVSYCAAVYRRQYGYWGQGTQVTVSS”, the “polyreactivity (PSR sort gate)” value is “high polyreactivity”.
On to “QVQLVESGAGLVQAGGSLRVSCAASGSIFSYYTMGWYRQPPGKERELVAAITYRGGSTYYADSVKGRFTISRDNAKNTVYLQRNSLKPEDTAVYYCAARTRNGAGYYWGQGTQVTVSS”, for which the “polyreactivity (PSR sort gate)” value is on record as “high polyreactivity”.
In the case of “QVQLVESGAGLVQARGSLRLSCAPSGRNFTYYAMGWYRQAPGTETELVAAISWSGGRTYYADSVKGRFTISRDNAKNTVYLKMNSLKPEDTAVYYCAADYYAFKFGRFDYWGQGTQVTVSS”, the “polyreactivity (PSR sort gate)” value was “high polyreactivity”.
Take “QVQLVESGAGLVQEGGSLRLSCAASGRIFQTYTMGWYRQAPGKERELVAAISASGGRTYYADSVKGRFTISRDNAKNTVYLQMNSLKPEDTAVYYCAADIRGYDYWGQGTQVTVSS”: the “polyreactivity (PSR sort gate)” value is given as “high polyreactivity”.
Regarding “QVQLVESGAVLVQAGGSIRLSCAASGSSFPYYAMGWYRQAPVKERELVATISQDGGRTYADSVKGRFTISRDNAKNTVYLQMNSLKPEDTAVDYCAADYSVNYDFGYWGQGTQVTVSS”, the “polyreactivity (PSR sort gate)” value is “low polyreactivity”.
On to “QVQLVESGEGLVQAGGSLRLSCAASGITFGWYAMGWYRQAPGKERELVASISSSGSTNYADSVKGRFTISRDNAKNTVYLQMNSLKPEDTAVYYCNKDYLLSHYYIYVIEGDYWGQGTQVTVSS”, for which the “polyreactivity (PSR sort gate)” value is reported as “low polyreactivity”.
Regarding “QVQLVESGEGLVQAGGSLRLSCAASGRTFYANAMGWYRQAPGKERELVASITTSGGTYYADSVKGRFTISRDNAKNTVYLQMNSLKPEDTAVYYCAADVYRSIGYDYWGQGTQVTVSS”, the “polyreactivity (PSR sort gate)” value is “low polyreactivity”.
As for “QVQLVESGEGLVQAGGSLRLSCAASGSIFTYNAMGWYRQAPGKERELVAAISRGGSTYYADSVKGRFSISRDNAKNTVNLQMNSLIPEDTAVYYCNARRYRHDGYWGQGTQVTVSS”, the “polyreactivity (PSR sort gate)” value is given as “high polyreactivity”.
“QVQLVESGGAIVQAGGSHRLRCAASGSILGRYAMAWYRQAPGKERELVAAISRRGGSTTYADSVKGRFTISRDNAKNTVYFQMNSLKPEDTALYYCNTVSSWGRNYQDEYDYWGQGTQVSVSS”: the “polyreactivity (PSR sort gate)” value is given as “high polyreactivity”.
The entry for “QVQLVESGGALDQAGGSLRVSCAASGSIFPIYTMGWYRQAPGKERELVAGIRYRGGNTYYADSVKGRFTISRDNAKNTVYLQMNSLNPEDTAVYYCAARAYYRYLYKLNYWGQGTQVTVSS” is “high polyreactivity”.
Regarding “QVQLVESGGALLQAGGSLRLSCAASGRIFYHYAMGWYRQAPGKESELVAASTWSGVSTYYADSVKGRFTISRDNAKNTVDLQMNRLIPADTAVYYCATSSPYGVRRYSRGSWGQGTQVTVSS”, the “polyreactivity (PSR sort gate)” value is “high polyreactivity”.
The entry for “QVQLVESGGALVQAGCSLRLSCAASGRTFYRNAMGWYRQAPGKERELVARISRNGGTTYYADSVKGRFTISRDNAKNTVYLQMNSLIPEYTAVYYCAAPIYDGARGDYWGQGTQVTVCS” is “high polyreactivity”.
The entry for “QVQLVESGGALVQAGGRLRLSCAASGSTFYTYAMGWYRHAPGKEREIVAAISWSDDSTYYADSVKGRFTISRDNAKNTVYLQMTSLKPEDTAVYYCAAEWGQRGGGGYYYWGQGTQVTVSS” is “low polyreactivity”; for “QVQLVESGGALVQAGGSLRLSCAASGFIFNHYAMGWYRQAPGKEREFVAAISWSGGSTYYADSVKGRFTISRDNAKNTVYLQMNSLKPEETAVYYCAASYNGLWHGDYDYWGQGTQVTVSS” it is “low polyreactivity”.
As to “QVQLVESGGALVQAGGSLRLSCAASGFIFSYYVMGWYRQAPGKERELVAAITTSGDSTYYADSVKGRFTISRDNAKNTVYLQMNSLKPEDTAVYYCAADIYYETIWHYGYWGQGTQVTVSS”, the “polyreactivity (PSR sort gate)” value is “high polyreactivity”.
For “QVQLVESGGALVQAGGSLRLSCAASGFIFYSWYAMGWYRQAPGKQRELVAAIRSGGSTYYADSVKGRFTISRDNAKNTVYLQMNSLKPEDTAVYYCAVKYSWSEYGYWGQGTQVTVSS”, the “polyreactivity (PSR sort gate)” value was “low polyreactivity”.
The entry for “QVQLVESGGALVQAGGSLRLSCAASGFTFRGYAMGWYRQAPGKEMELVAAIRGGGGRTYYADSVKGRFTISRDNAKNTVYLQMNSLKPEDTAGYYCAASYYDYSDVRSDYWGQGTQVTVSS” is “high polyreactivity”.
